In the nanobody polyreactivity screen of Harvey et al. (2022):

Assay: yeast display, Sf9 membrane polyspecificity reagent, FACS + sequencing; frameworks hold sequencing errors
Outline: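 Sorting gates, low and high (top ~1%), were placed on anti-HA fluorescence to track expression and on streptavidin fluorescence to track reagent binding. A clone's polyreactivity label is taken from the gate it came out of. The reagent was 10% biotinylated, detergent-solubilized Sf9 membrane, applied for 1 hour at 4 °C to galactose-induced yeast display cells.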

Sequence | polyreactivity (PSR sort gate)
QVQLVESGGGLVQAGGSLRLSCAASGFTFKQYGMGWYRQAPGKERELVASISYRGGSTHYADSVKGRFTISRDNAKKTVYLQMNSLKPEDTAVYYCAARVTSRTSIKGDYWGQGTQVTVSS | low polyreactivity
QVQLVESGGGLVQAGGSLRLSCAASGRTFESYAMGWYRQAAGKERELVAAIRSRGGSTNYADSVKGRFTISRDNAKNTVYLQMNSLKPEDTAVYYCNKDGTWVARAVTYADFDYWGQGTQVTVSS | low polyreactivity
QVQLVESGGGLVQAGGSLRLICAASGSTLTSNSMGWYRQAPGKERELVASISRRGDSTNYADSVKGRFTISRDNAKNTVYLQMNSLKPEDTAVYYCVAYGYFQSNLWSEFDYWGQGTQVTVSS | low polyreactivity
QVQLVESGGGLVQAGGSLRLSCAASGSTFGAYVMGWSRQAPGKERELVAGITYSGGTTYYAYSVKGRFTISRDNSKNTVYLQMNILKPEDTAVYYCNVSQHYSRRLKKWQMDYWGQGTQVTVSS | high polyreactivity
QVQLVESGGGLVQSGGSLRLICAASGRNYAMGWYRQAPGKERELVARITKSGTSTYYADSVKGRFTISRDNAKNTVYLQMNSLKPEDTAVYYCNARYWGYWGDHYDYWGQGTQVTVSS | high polyreactivity
QVQLVESGGGLVQAGGSLRLTCAASGRIFSFNAMVSYRKATGKERELVATIRTDGTTNYADSVKGRFTISRDNAKNTVYLQMNSMKPEDTAVYYCATDSGWSTYDFWGQGTQVTVSS | high polyreactivity
QVQLVESGGGLVQAGGSLRISCAASGFTFGVYAMGWYRPAPGKEREFVASISFSGGRTYYSDSVKGRFTISRDNAKNTVYLQMNSLKPEDTAVYYCAKRWSADDYWGQGTQVTVSS | high polyreactivity
QVQLQESGAGLVQAGGDLRLSCAASGNIFRDYIMGWYRQAPGKEREFVAGIDRGANTNYADSVKGRFTISRDNAKNTVYLQMNSLKPEDTAVYYCAVHTAIVPDFIYWGQGTQVTVSS | low polyreactivity
QVQLVESGGGLVQAGGSLRLSCAASGIIFSRYAMGWYRQAPGKERELVAAISTSGGRTFYADSVKGRFTISRDYAKNTVYLQMNSLKPEDTAVYYCNAEIQRGPGRGGYNYWGQGTQVTVSS | high polyreactivity
QVQLVESGGGLVQAGGSLRLSCAASGRIHTYAMGWYRQAPGKERELVAAISFSGGSTYYADSVKGRFTISRDNAKNTVYLQMNSLKPEDTAVYYCAAGGGPNYFVDYGIRYDNWGQGTQVTVSS | low polyreactivity
QVQHVESGGGLVQAGGSLRLSCAASGSIFASNAMGWYRQPPGKEREFVAAISSSGTRTYSADSVKGRFTISRDNAKNTVYLQLNSLKQEDTAVYYCATRRGYDSVYYFYTLWSYYWGQGTQVTVSS | low polyreactivity
QVQLVESGGGLVQAGGSLRLSCAASGSTFSRYPMGWSRQAPGKERELVAAISWGGNTYYADSVKGRFTISRDNAKNTVYLQMNSLQPEDTAVYYCNRYSKLYNTMDYWGQGTQVTVSS | high polyreactivity
QVQLVESGGGLVQAGGSLRLSCAASGSTFYVYAIGWYRHAPGKERELVADITYSDGGTFYADSVKGRFTISRDNAKTTVYLQMNSLKPEDTAGYYCATSYLWNYRGDIFDYWGQGTQVTVSS | high polyreactivity
QVQLVESRGGLVQAGGSLRLSCAASGITFYVNDMGWYRQEPGTERELVAAISYRGGSTYYADSVKGRFTISRDNAKNTVYLQMNSLKPEDTAVYYCAADYNYWSPHRDDYWGQGTQVTVSS | low polyreactivity
QVQLVESGGGLVQAGGSLRFSCAASGSTFYYYAMGWYRQAPGKERELVAAINTSGGITYYADSVKGRFTISRDNAKNTVYLQMNSLKPEDTAVYYCATQLWDRYGFGYWGQGTQVTVSS | high polyreactivity
QVQLVESGGGLVQAGGSLRISCAASGSIFTINAMGWYRQAPGKERELVARITSVDSTNYADSVKGRFTISRDNAKNNVHLQMNSLKPEDTAVYYCNATFGYPFVDYDDYWGQGTQVTVSS | low polyreactivity
QVQLVDSGGGLVQAGGSLRLSCAASGRIFWHNAMGWYRQAPGKERELVAAITGGGSTYYADSVKGRFTMSRVNAKNTVYLQKNSLIPEDTAVYYCATLGSLRYYWPGYDYWGQGTQVTVSS | low polyreactivity
QVQLVESCGGLVQAGGSLPLSCAASGFTFYYYTMGWYRQAPGKERELVAVITGGGGSTYYADSVKGRFTISRDNAKNTVYLQMNSLKPEDTAVYYCAAKFYGWYRERGYDYWGQGTQVTVSS | high polyreactivity
QVQLVESGGGLVQAGGSLRLSCAASGRIFIAYAMGWYRQAPGKERELVAAITDDGGTNYADSVKGRFTISRDNAKNTVYLQMNSLKPEDTAVYYCAATYLIGYYYVWEYDYWGQGTQVTVSS | low polyreactivity
QVQLVESGGGLVQAGGSLRLSCAAPGSTLSYYAMGWYRQATGKERELVAAISLSVGSTYYADSVKGRFTISRDNAKNTVYLQMNSLKPEDTAVYYCAADDFYSGPFRGDYWGQGTQVTVSS | low polyreactivity
QVQLVESGGGLVQAGGSLRLSCATSGSIFVFNAMGWYRQAPGKERELVAAIDTSDDITYYADSVKGRFTISRDNAKNTVYLQMNSLKPEDTAVYYCNAYYTYRFNYWGQGTQVTVSS | high polyreactivity
QVQLVESGGGLVQAGGSLRLSCAASGSIFLKYAMCLYRQAPGKERELVAAMSFSGGGTYYADSVKGRFTISRDNAKNTVYLQMNSLKPEDTAVYYCAADKIVYVRSNWYWGFDYWGQGTQVTVSS | low polyreactivity

Sequence | polyreactivity (PSR sort gate)
QVQLVESGGGIVQAGGSLRLSCAASGFISSVNAMGWYRQAPGKDRELVAAISDSATSTYYADSVKGRFTISRDNAKNTVYLQMNSLKPEDTAVYYCDAYSHYVGYEYWGQGTQVTVSS | high polyreactivity
QVQLVESGGGLVQAGGSLRLSCAASGSTFKWNAMGWYRQAPGKERELVAAISKGSVNTYYADSVKGRFTISRDNAKNTVYLQMNSLKPEDTAVYYCAADRRYPALDYWGQGTQVTVSS | high polyreactivity
QVQLVESGGGLVQAGGSLRLSCAASGFIFARNTMGWYRQAPGKERELVAAITKSGGSTYYADSVKGRFTISRDNAKNTVYLQMNSPKPEDTSVYYCAARSWWLRGIYGFDSWGQGTQVTVSS | low polyreactivity
QVQLVESGGGLVKAGGSLRLSCAASGIIFSFYTMGWYRQAPGKQRELVAAITWSGGSTYYADSVKGRFTISRDNAKNTVYLQMNSLKPEDTAVYFCNARYPWRKRSQGYSWGQGTQVTVSS | low polyreactivity
QVQRVESGGGLVQAGGSLRLSCAASGLIFGGYAMGWYRQAPGKERELVAAITSGGSTKYADSVKGRFTISRDNAKNTVYLQMNSLKPEDTAVYYCAASGWRNWWSARNYYWGQGTQVTVSS | low polyreactivity
QVQLVESGGGLVQAGGSLRLSCAASGRIFSAYTMGWYRQAPGNERELVAAIRWSGDSTYYADSVKGRFTISRDNAKNTVYLQKNSLKPEDTAVYYCAARDRWFPRYSSRYYSWGQGTQVSVSS | high polyreactivity
QVQLVESGGGLVQAGGSLRLSCAASGSTFIPNTMGWYRQAPGKERELVAAISRRGGSTNYADSVKGRFTISRDNAKNTVYLQMNSLKPEDTAVYYCAAVSPRRYRYDYWGQGTQVTVSS | high polyreactivity
QVHLVESGGGLVQAGGSLRLSCAASGRTFDLNVMGWYRQAPGKERELVAAISFSGGSTYYADSVKGRFTISRDNAKNTVYLQMNSLKPEDTAVYYCSADEYSADSVPSWYDYWGQGTQVTVSS | high polyreactivity
QVQLVESGGGLVQAGGSLRLSCAASGRTSAINAMGWYRQAPGKERELVADITRTGGTYADSVKGRFTISRDNAKNNVYLQMNSLKPEVTAVYYCAAVGAWRFDYWGQGTQVTVSS | high polyreactivity
QVQLVESGGGLVQAGGSLRLSCAASGYTFQENAMGWYRQAPGKERELVAAISYGGGSTYYADSVKGRFTISRDNAKNTVYLQMNRLKPEDTAVYYCADDGGSAYAWYFAELYGYWGQGTQVTVSS | low polyreactivity
QVQLVESGGGLVQAGGSLRLSCAASGFTFPWYAMGWYRQAPGKERELVATITRGGSTYYADSVKGRFTISRDNAKNTVYLQMNSLKPEDTAVYYCAVTYWRYHSYSPYDYWGQGTQVTVSS | high polyreactivity
QVQLVESGGGVVQAGGSLRLSCAASGRILRGYALGWYRPAPGTERELVAAITWRGGSTYYADSVKGRFTISRDNAKNTVYLQMNSLKPEDTAVYYCAADRAYRYEMDYWGQGTQVTVSS | high polyreactivity
QVQHVESGGGLDQAGGSLRLSCAASGITFEGYAMGWYRQAPGKERELVAAIRSSGTSTYYADSVKGRFTISRDNAKNTFYLQMISLKPEETAVYYCNRARSSYSYDYWGQGTQVTVSS | low polyreactivity
QDQHVESGGGLVQAGGSLRLSCAASGRTFRLYAMGWYRQAPGKERELVAAITRGGRTNYADSVKGRFTISRDNAKNTVYLQMNSLKPEDTAVYYCAARYVERHTDYYYWGQGTQVTVSS | low polyreactivity
QVQLVESGGGLVQAGGSLRLSCAATGSIFRGYAMGWYRQAPGKERELVAAITSGGSTNYADSVKGRFTISRDNAKNTVYLQMNSLKPEDTAVYYCAKDLALVAPLSDYWGQGTQVTVSW | low polyreactivity
QVQLVESGGGLVQAGGSLRLSCAASGSTFRYNDMGWYRQAPGKERELVADITSGGGTYYADSVKGRFTISRDNAKNTVYLQMNSLKPEDTAVYYCNADGFYDYPGWYGLVYWYDYWGQGTQVTVSS | high polyreactivity
QVQLVESGGGLVHAGGSLRLSCASSGSTFVLYAMGWYRQAPGKERELVAVISWSGGSTYYADSVKGRFTISRDNAKNTVYLQLYSLKPEDTAVYYCAKRYRVSYYPYADPYGYWGQGTQVNVSS | low polyreactivity
QVQLVESGGGLVQAGGSLRLSCAASGSTFIPYAMGWYRQAPGKERELVAAISFNDGITYYADSVKGRFKISRDNAKNTVYLQMNSLKPEDTAVYYCAAEDWSDYPYGMDYWGQGTQVTVSS | high polyreactivity
QVQLVESGGGLVQAGGSLRLSCAASGYTFYANAMGWYRQAPGKEREFVASSTWSGGSTYYADSVKGRFTISRDNAKNTVYFQMNSLKPEDTAVYYCAADSWFKYDYWGQGTQVTVSS | low polyreactivity
QVKLVESGGGLVQAGGSLRLICAASGRIFVPYAMGWNRQAPWKETELFAAISRSGGSTYYADSVKGRFTISRDNAKNTVYLQMNSLKTEETAVYYCAVYYRRYKEYGYNYWGQGTEVTVSS | high polyreactivity
QVQLVESGGGLVQAGGILRISCAASGRTFASNAMGWYRRAPGKERELVAAMSSSGGRTYYADSVKGRITISRDNAKNTVYLQMNSLKPEYTPVFYCAKVGPVYKYDYWGQGTQVTVSS | high polyreactivity
